Patent US20060063149A1 (BIOKIT S A, published 2006)

T1: Tp17-HIS monomers (Treponema pallidum, UniProt P29722 23-156)
T1 construct: also called monomeric Tp17-His; not shown: HIS tag from the pET24a vector
T1 sequence: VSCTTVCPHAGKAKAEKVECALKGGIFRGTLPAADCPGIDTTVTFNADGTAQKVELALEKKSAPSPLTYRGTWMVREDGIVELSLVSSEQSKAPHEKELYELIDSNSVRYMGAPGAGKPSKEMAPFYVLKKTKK

T2: Tp17-HIS dimers (Treponema pallidum, UniProt P29722 23-156)
T2 construct: also called dimeric Tp17-His; not shown: HIS tag from the pET24a vector
T2 sequence: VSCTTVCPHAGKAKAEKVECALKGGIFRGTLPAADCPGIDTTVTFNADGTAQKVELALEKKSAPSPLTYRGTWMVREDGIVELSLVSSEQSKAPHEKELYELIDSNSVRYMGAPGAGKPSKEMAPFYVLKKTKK

T3: GST-Tp47 fusion protein (Treponema pallidum, UniProt P29723 20-434)
T3 construct: Control protein that shares the GST moiety with GST-Tp17; also called control GST-Tp47 antigen; not shown: GST moiety
T3 sequence: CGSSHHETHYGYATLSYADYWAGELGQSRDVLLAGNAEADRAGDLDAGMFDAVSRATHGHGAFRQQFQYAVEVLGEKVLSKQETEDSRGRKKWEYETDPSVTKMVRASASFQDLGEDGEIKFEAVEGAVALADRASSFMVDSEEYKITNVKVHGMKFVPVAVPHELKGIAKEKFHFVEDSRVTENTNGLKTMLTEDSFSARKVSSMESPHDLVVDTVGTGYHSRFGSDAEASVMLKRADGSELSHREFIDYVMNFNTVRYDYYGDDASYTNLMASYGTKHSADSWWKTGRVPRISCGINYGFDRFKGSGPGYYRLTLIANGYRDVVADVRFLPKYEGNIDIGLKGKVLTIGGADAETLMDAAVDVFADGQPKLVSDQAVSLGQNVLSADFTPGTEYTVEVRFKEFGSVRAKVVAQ


Tests used:
[1] = target: T1, Tp17-HIS monomers; experiment: size-exclusion chromatography of complexes formed in vitro
[2] = target: T2, Tp17-HIS dimers; experiment: as above
[3] = target: T3, GST-Tp47 fusion protein; experiment: Far Western blot, lysozyme on PVDF membrane

Binder | binding result [1] | binding result [2] | binding result [3]
recombinant human lysozyme (Ventria Bioscience) (enzyme, Bought product (159-53LZ-90P); also called huLYS; LyzR) KVFERCELARTLKRLGMDGYRGISLANWMCLAKWESGYNTRATNYNAGDRSTDYGIFQINSRYWCNDGKTPGAVNACHLSCSALLQDNIADAVACAKRVVRDPQGIRAWVAWRNRCQNRDVRQYVQGCGV | binds | binds | 
human breast milk lysozyme (enzyme, also called human lysozyme; huLYS) KVFERCELARTLKRLGMDGYRGISLANWMCLAKWESGYNTRATNYNAGDRSTDYGIFQINSRYWCNDGKTPGAVNACHLSCSALLQDNIADAVACAKRVVRDPQGIRAWVAWRNRCQNRDVRQYVQGCGV |  |  | no binding
